Assay results from US20150344570A1 (published 2015).

T1: FcγRIIb extracellular domain with C-terminal His tag (human, UniProt P31994 43-217)
T1 construct: extracellular domain; expressed in FreeStyle293 cells; analyte in Biacore; also called FcgRIIb; 2b
T1 sequence (looked up): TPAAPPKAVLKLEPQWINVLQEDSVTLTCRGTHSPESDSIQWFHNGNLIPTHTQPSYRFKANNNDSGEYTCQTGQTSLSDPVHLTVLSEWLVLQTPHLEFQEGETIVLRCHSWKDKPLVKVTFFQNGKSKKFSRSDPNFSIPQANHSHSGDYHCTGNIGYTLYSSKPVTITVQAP


Columns and labels:
[1] = molecular target: T2, FcγRIa extracellular domain with C-terminal His tag (human, UniProt P12314 16-292); experiment: SPR (Biacore), captured antibody, FcγR as analyte; relative binding
T2 construct: extracellular domain; expressed in FreeStyle293 cells; analyte in Biacore; also called FcgRI; 1a
T2 sequence (P12314 16-292): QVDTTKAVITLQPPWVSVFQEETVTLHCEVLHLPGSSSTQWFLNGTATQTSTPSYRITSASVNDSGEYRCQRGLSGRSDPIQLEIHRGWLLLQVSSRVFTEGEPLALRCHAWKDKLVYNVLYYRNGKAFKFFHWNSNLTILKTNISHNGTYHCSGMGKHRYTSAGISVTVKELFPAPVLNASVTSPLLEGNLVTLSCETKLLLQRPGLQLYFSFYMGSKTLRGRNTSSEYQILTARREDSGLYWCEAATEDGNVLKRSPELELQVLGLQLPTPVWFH

[2] = molecular target: T1, FcγRIIb extracellular domain with …; experiment: as above
[3] = molecular target: T2, FcγRIa extracellular domain with …; experiment: SPR (Biacore); He/Con_1a divided by He/Con_2b (FcγRIIb as reference)

He/Con_1a [1] | He/Con_2b [2] | He_1a/2b (Ia/IIb) [3] [ratio] | Binder
51.5 % of HeCon Ab (GpH7-A5/GpH7-B3/GpL16-k0 = 100) | 1.1 % of HeCon Ab (GpH7-A5/GpH7-B3/GpL16-k0 = 100) | 45.6 | GpH7-A5/GpH7-B3 variant D265_20W/GpL16-k0 (antibody, human IgG1, kappa, He Ab; IgG1, mutation in one H chain) heavy 1: not shown heavy 2: not shown light: DIVMTQSPLSLPVTPGEPASISCQASESLVHSNRNTYLHWYLQKPGQSPQLLIYKVSNRFSGVPDRFSGSGSGTDFTLKISRVEAEDVGVYYCSQNTHVPPTFGQGTKVEIERTVAAPSVFIFPPSDEQLKSGTASVVCLLNNFYPREAKVQWKVDNALQSGNSQESVTEQDSKDSTYSLSSTLTLSKADYEKHKVYACEVTHQGLSSPVTKSFNRGEC
91.3 % of HeCon Ab (GpH7-A5/GpH7-B3/GpL16-k0 = 100) | 51.5 % of HeCon Ab (GpH7-A5/GpH7-B3/GpL16-k0 = 100) | 1.77 | GpH7-A5/GpH7-B3 variant V266_01G/GpL16-k0 (antibody, human IgG1, kappa, He Ab; IgG1, mutation in one H chain) heavy 1: not shown heavy 2: not shown light: DIVMTQSPLSLPVTPGEPASISCQASESLVHSNRNTYLHWYLQKPGQSPQLLIYKVSNRFSGVPDRFSGSGSGTDFTLKISRVEAEDVGVYYCSQNTHVPPTFGQGTKVEIERTVAAPSVFIFPPSDEQLKSGTASVVCLLNNFYPREAKVQWKVDNALQSGNSQESVTEQDSKDSTYSLSSTLTLSKADYEKHKVYACEVTHQGLSSPVTKSFNRGEC
96.7 % of HeCon Ab (GpH7-A5/GpH7-B3/GpL16-k0 = 100) | 57.6 % of HeCon Ab (GpH7-A5/GpH7-B3/GpL16-k0 = 100) | 1.68 | GpH7-A5/GpH7-B3 variant V266_04F/GpL16-k0 (antibody, human IgG1, kappa, He Ab; IgG1, mutation in one H chain) heavy 1: not shown heavy 2: not shown light: DIVMTQSPLSLPVTPGEPASISCQASESLVHSNRNTYLHWYLQKPGQSPQLLIYKVSNRFSGVPDRFSGSGSGTDFTLKISRVEAEDVGVYYCSQNTHVPPTFGQGTKVEIERTVAAPSVFIFPPSDEQLKSGTASVVCLLNNFYPREAKVQWKVDNALQSGNSQESVTEQDSKDSTYSLSSTLTLSKADYEKHKVYACEVTHQGLSSPVTKSFNRGEC
92.7 % of HeCon Ab (GpH7-A5/GpH7-B3/GpL16-k0 = 100) | 45.1 % of HeCon Ab (GpH7-A5/GpH7-B3/GpL16-k0 = 100) | 2.06 | GpH7-A5/GpH7-B3 variant S239_20W/GpL16-k0 (antibody, human IgG1, kappa, He Ab; IgG1, mutation in one H chain) heavy 1: not shown heavy 2: not shown light: DIVMTQSPLSLPVTPGEPASISCQASESLVHSNRNTYLHWYLQKPGQSPQLLIYKVSNRFSGVPDRFSGSGSGTDFTLKISRVEAEDVGVYYCSQNTHVPPTFGQGTKVEIERTVAAPSVFIFPPSDEQLKSGTASVVCLLNNFYPREAKVQWKVDNALQSGNSQESVTEQDSKDSTYSLSSTLTLSKADYEKHKVYACEVTHQGLSSPVTKSFNRGEC
71.9 % of HeCon Ab (GpH7-A5/GpH7-B3/GpL16-k0 = 100) | 0.4 % of HeCon Ab (GpH7-A5/GpH7-B3/GpL16-k0 = 100) | 205 | GpH7-A5/GpH7-B3 variant V266_05P/GpL16-k0 (antibody, human IgG1, kappa, He Ab; IgG1, mutation in one H chain) heavy 1: not shown heavy 2: not shown light: DIVMTQSPLSLPVTPGEPASISCQASESLVHSNRNTYLHWYLQKPGQSPQLLIYKVSNRFSGVPDRFSGSGSGTDFTLKISRVEAEDVGVYYCSQNTHVPPTFGQGTKVEIERTVAAPSVFIFPPSDEQLKSGTASVVCLLNNFYPREAKVQWKVDNALQSGNSQESVTEQDSKDSTYSLSSTLTLSKADYEKHKVYACEVTHQGLSSPVTKSFNRGEC

The next lines start with the binder.

Binder | He/Con_1a [1] | He/Con_2b [2] | He_1a/2b (Ia/IIb) [3] [ratio]
GpH7-A5/GpH7-B3 variant D265_10E/GpL16-k0 (antibody, human IgG1, kappa, He Ab; IgG1, mutation in one H chain) heavy 1: not shown heavy 2: not shown light: DIVMTQSPLSLPVTPGEPASISCQASESLVHSNRNTYLHWYLQKPGQSPQLLIYKVSNRFSGVPDRFSGSGSGTDFTLKISRVEAEDVGVYYCSQNTHVPPTFGQGTKVEIERTVAAPSVFIFPPSDEQLKSGTASVVCLLNNFYPREAKVQWKVDNALQSGNSQESVTEQDSKDSTYSLSSTLTLSKADYEKHKVYACEVTHQGLSSPVTKSFNRGEC | 101 % of HeCon Ab (GpH7-A5/GpH7-B3/GpL16-k0 = 100) | 38.2 % of HeCon Ab (GpH7-A5/GpH7-B3/GpL16-k0 = 100) | 2.66
GpH7-A5/GpH7-B3 variant D265_15Y/GpL16-k0 (antibody, human IgG1, kappa, He Ab; IgG1, mutation in one H chain) heavy 1: not shown heavy 2: not shown light: DIVMTQSPLSLPVTPGEPASISCQASESLVHSNRNTYLHWYLQKPGQSPQLLIYKVSNRFSGVPDRFSGSGSGTDFTLKISRVEAEDVGVYYCSQNTHVPPTFGQGTKVEIERTVAAPSVFIFPPSDEQLKSGTASVVCLLNNFYPREAKVQWKVDNALQSGNSQESVTEQDSKDSTYSLSSTLTLSKADYEKHKVYACEVTHQGLSSPVTKSFNRGEC | 44.3 % of HeCon Ab (GpH7-A5/GpH7-B3/GpL16-k0 = 100) | 0.6 % of HeCon Ab (GpH7-A5/GpH7-B3/GpL16-k0 = 100) | 73.5
GpH7-A5/GpH7-B3 variant D265_13S/GpL16-k0 (antibody, human IgG1, kappa, He Ab; IgG1, mutation in one H chain) heavy 1: not shown heavy 2: not shown light: DIVMTQSPLSLPVTPGEPASISCQASESLVHSNRNTYLHWYLQKPGQSPQLLIYKVSNRFSGVPDRFSGSGSGTDFTLKISRVEAEDVGVYYCSQNTHVPPTFGQGTKVEIERTVAAPSVFIFPPSDEQLKSGTASVVCLLNNFYPREAKVQWKVDNALQSGNSQESVTEQDSKDSTYSLSSTLTLSKADYEKHKVYACEVTHQGLSSPVTKSFNRGEC | 68.7 % of HeCon Ab (GpH7-A5/GpH7-B3/GpL16-k0 = 100) | 11.3 % of HeCon Ab (GpH7-A5/GpH7-B3/GpL16-k0 = 100) | 6.07
GpH7-A5/GpH7-B3 variant D265_11K/GpL16-k0 (antibody, human IgG1, kappa, He Ab; IgG1, mutation in one H chain) heavy 1: not shown heavy 2: not shown light: DIVMTQSPLSLPVTPGEPASISCQASESLVHSNRNTYLHWYLQKPGQSPQLLIYKVSNRFSGVPDRFSGSGSGTDFTLKISRVEAEDVGVYYCSQNTHVPPTFGQGTKVEIERTVAAPSVFIFPPSDEQLKSGTASVVCLLNNFYPREAKVQWKVDNALQSGNSQESVTEQDSKDSTYSLSSTLTLSKADYEKHKVYACEVTHQGLSSPVTKSFNRGEC | 43.2 % of HeCon Ab (GpH7-A5/GpH7-B3/GpL16-k0 = 100) | 14.9 % of HeCon Ab (GpH7-A5/GpH7-B3/GpL16-k0 = 100) | 2.9
GpH7-A5/GpH7-B3 variant D265_19Q/GpL16-k0 (antibody, human IgG1, kappa, He Ab; IgG1, mutation in one H chain) heavy 1: not shown heavy 2: not shown light: DIVMTQSPLSLPVTPGEPASISCQASESLVHSNRNTYLHWYLQKPGQSPQLLIYKVSNRFSGVPDRFSGSGSGTDFTLKISRVEAEDVGVYYCSQNTHVPPTFGQGTKVEIERTVAAPSVFIFPPSDEQLKSGTASVVCLLNNFYPREAKVQWKVDNALQSGNSQESVTEQDSKDSTYSLSSTLTLSKADYEKHKVYACEVTHQGLSSPVTKSFNRGEC | 88.8 % of HeCon Ab (GpH7-A5/GpH7-B3/GpL16-k0 = 100) | 33.4 % of HeCon Ab (GpH7-A5/GpH7-B3/GpL16-k0 = 100) | 2.66
GpH7-A5/GpH7-B3 variant D265_12R/GpL16-k0 (antibody, human IgG1, kappa, He Ab; IgG1, mutation in one H chain) heavy 1: not shown heavy 2: not shown light: DIVMTQSPLSLPVTPGEPASISCQASESLVHSNRNTYLHWYLQKPGQSPQLLIYKVSNRFSGVPDRFSGSGSGTDFTLKISRVEAEDVGVYYCSQNTHVPPTFGQGTKVEIERTVAAPSVFIFPPSDEQLKSGTASVVCLLNNFYPREAKVQWKVDNALQSGNSQESVTEQDSKDSTYSLSSTLTLSKADYEKHKVYACEVTHQGLSSPVTKSFNRGEC | 44.3 % of HeCon Ab (GpH7-A5/GpH7-B3/GpL16-k0 = 100) | 15 % of HeCon Ab (GpH7-A5/GpH7-B3/GpL16-k0 = 100) | 2.96
GpH7-A5/GpH7-B3 variant D265_18N/GpL16-k0 (antibody, human IgG1, kappa, He Ab; IgG1, mutation in one H chain) heavy 1: not shown heavy 2: not shown light: DIVMTQSPLSLPVTPGEPASISCQASESLVHSNRNTYLHWYLQKPGQSPQLLIYKVSNRFSGVPDRFSGSGSGTDFTLKISRVEAEDVGVYYCSQNTHVPPTFGQGTKVEIERTVAAPSVFIFPPSDEQLKSGTASVVCLLNNFYPREAKVQWKVDNALQSGNSQESVTEQDSKDSTYSLSSTLTLSKADYEKHKVYACEVTHQGLSSPVTKSFNRGEC | 27.7 % of HeCon Ab (GpH7-A5/GpH7-B3/GpL16-k0 = 100) | 6.1 % of HeCon Ab (GpH7-A5/GpH7-B3/GpL16-k0 = 100) | 4.52
GpH7-A5/GpH7-B3 variant D265_14T/GpL16-k0 (antibody, human IgG1, kappa, He Ab; IgG1, mutation in one H chain) heavy 1: not shown heavy 2: not shown light: DIVMTQSPLSLPVTPGEPASISCQASESLVHSNRNTYLHWYLQKPGQSPQLLIYKVSNRFSGVPDRFSGSGSGTDFTLKISRVEAEDVGVYYCSQNTHVPPTFGQGTKVEIERTVAAPSVFIFPPSDEQLKSGTASVVCLLNNFYPREAKVQWKVDNALQSGNSQESVTEQDSKDSTYSLSSTLTLSKADYEKHKVYACEVTHQGLSSPVTKSFNRGEC | 78.5 % of HeCon Ab (GpH7-A5/GpH7-B3/GpL16-k0 = 100) | 16 % of HeCon Ab (GpH7-A5/GpH7-B3/GpL16-k0 = 100) | 4.9
GpH7-A5/GpH7-B3 variant D265_16H/GpL16-k0 (antibody, human IgG1, kappa, He Ab; IgG1, mutation in one H chain) heavy 1: not shown heavy 2: not shown light: DIVMTQSPLSLPVTPGEPASISCQASESLVHSNRNTYLHWYLQKPGQSPQLLIYKVSNRFSGVPDRFSGSGSGTDFTLKISRVEAEDVGVYYCSQNTHVPPTFGQGTKVEIERTVAAPSVFIFPPSDEQLKSGTASVVCLLNNFYPREAKVQWKVDNALQSGNSQESVTEQDSKDSTYSLSSTLTLSKADYEKHKVYACEVTHQGLSSPVTKSFNRGEC | 85.4 % of HeCon Ab (GpH7-A5/GpH7-B3/GpL16-k0 = 100) | 38.3 % of HeCon Ab (GpH7-A5/GpH7-B3/GpL16-k0 = 100) | 2.23
